Measured values taken from patent WO2016071355A1 (dated 2016).
One block for each binder: values may come before it.

How the values were obtained:
[1] = molecular target: T1, human CD38 peptide-Fc fusion F14 (human, UniProt P0DOX5 223-449 = IgG part); test: SPR, antibody immobilized, peptide-Fc injected at 1000 nM
[2] = molecular target: T2, human CD38 peptide-Fc fusion F4 (human, UniProt P0DOX5 223-449 = IgG part); test: as above
T2 construct: doubtful

[3] = molecular target: T3, human CD38 peptide-Fc fusion F6 (human, UniProt P0DOX5 195-449 = IgG part); test: as above
[4] = molecular target: T4, human CD38 peptide-Fc fusion F3 (human, UniProt P0DOX5 223-449 = IgG part); test: as above
T4 construct: doubtful; also called F3 construct

[5] = molecular target: T5, human CD38 peptide-Fc fusion F20 (human, UniProt P0DOX5 223-449 = IgG part); test: as above
[6] = molecular target: T6, human CD38 peptide-Fc fusion F11 (human, UniProt P0DOX5 223-449 = IgG part); test: as above
[7] = molecular target: T7, human CD38 peptide-Fc fusion F18 (human, UniProt P0DOX5 223-449 = IgG part); test: as above
[8] = molecular target: T8, human CD38 peptide-Fc fusion F15 (human, UniProt P0DOX5 223-449 = IgG part); test: as above
[9] = molecular target: T9, human CD38 peptide-Fc fusion F7 (human, UniProt P0DOX5 223-449 = IgG part); test: as above
[10] = molecular target: T10, human CD38 peptide-Fc fusion F10 (human, UniProt P0DOX5 223-449 = IgG part); test: as above
[11] = molecular target: T11, human CD38 peptide-Fc fusion F16 (human, UniProt P0DOX5 223-449 = IgG part); test: as above
[12] = molecular target: T12, human CD38 peptide-Fc fusion F9 (human, UniProt P0DOX5 223-449 = IgG part); test: as above
[13] = molecular target: T13, human CD38 peptide-Fc fusion F13 (human, UniProt P0DOX5 223-449 = IgG part); test: as above
[14] = molecular target: T14, human CD38 peptide-Fc fusion F5 (human, UniProt P0DOX5 223-449 = IgG part); test: as above
[15] = molecular target: T15, human CD38 peptide-Fc fusion F8 (human, UniProt P0DOX5 223-449 = IgG part); test: as above
[16] = molecular target: T16, human CD38 peptide-Fc fusion F1 (human, UniProt P0DOX5 223-449 = IgG part); test: as above
[17] = molecular target: T17, human CD38 peptide-Fc fusion F19 (human, UniProt P0DOX5 223-449 = IgG part); test: as above
[18] = molecular target: T18, human CD38 peptide-Fc fusion F17 (human, UniProt P0DOX5 223-449 = IgG part); test: as above
[19] = molecular target: T19, human CD38 peptide-Fc fusion F2 (human, UniProt P0DOX5 223-449 = IgG part); test: as above
[20] = molecular target: T20, human CD38 peptide-Fc fusion F12 (human, UniProt P0DOX5 223-449 = IgG part); test: as above
[21] = molecular target: T21, soluble extracellular region of human CD38 fused to a 6-His-tag (human, UniProt P28907 43-300); test: SPR, equilibrium response, antibody captured on protein G
T21 construct: also called human CD38 extracellular domain with a poly-histidine tag; human CD38 antigen

[22] = molecular target: T22, soluble extracellular region of cynomolgus monkey CD38 antigen fused to a 6-His-tag (cynomolgus monkey, UniProt Q5VAN0 45-301); test: SPR
T22 construct: also called cynomolgus CD38

[23] = molecular target: T3, human CD38 peptide-Fc fusion F6; test: SPR
[24] = molecular target: T4, human CD38 peptide-Fc fusion F3; test: SPR
[25] = molecular target: T1, human CD38 peptide-Fc fusion F14; test: SPR, antibody immobilized, peptide-Fc injected at 15 nM and 200 nM
[26] = molecular target: T2, human CD38 peptide-Fc fusion F4; test: as above
[27] = molecular target: T4, human CD38 peptide-Fc fusion F3; test: as above
[28] = molecular target: T5, human CD38 peptide-Fc fusion F20; test: as above
[29] = molecular target: T6, human CD38 peptide-Fc fusion F11; test: as above
[30] = molecular target: T7, human CD38 peptide-Fc fusion F18; test: as above
[31] = molecular target: T8, human CD38 peptide-Fc fusion F15; test: as above
[32] = molecular target: T9, human CD38 peptide-Fc fusion F7; test: as above
[33] = molecular target: T10, human CD38 peptide-Fc fusion F10; test: as above
[34] = molecular target: T11, human CD38 peptide-Fc fusion F16; test: as above
[35] = molecular target: T12, human CD38 peptide-Fc fusion F9; test: as above
[36] = molecular target: T13, human CD38 peptide-Fc fusion F13; test: as above
[37] = molecular target: T14, human CD38 peptide-Fc fusion F5; test: as above
[38] = molecular target: T15, human CD38 peptide-Fc fusion F8; test: as above
[39] = molecular target: T16, human CD38 peptide-Fc fusion F1; test: as above
[40] = molecular target: T17, human CD38 peptide-Fc fusion F19; test: as above
[41] = molecular target: T18, human CD38 peptide-Fc fusion F17; test: as above
[42] = molecular target: T19, human CD38 peptide-Fc fusion F2; test: as above
[43] = molecular target: T20, human CD38 peptide-Fc fusion F12; test: as above

binding result [1]: no binding (tested: 1000 nM)
binding result [2]: no binding (tested: 1000 nM)
binding result [3]: no binding (tested: 1000 nM)
binding result [4]: binds
binding result [5]: no binding (tested: 1000 nM)
binding result [6]: no binding (tested: 1000 nM)
binding result [7]: no binding (tested: 1000 nM)
binding result [8]: no binding (tested: 1000 nM)
binding result [9]: no binding (tested: 1000 nM)
binding result [10]: no binding (tested: 1000 nM)
binding result [11]: no binding (tested: 1000 nM)
binding result [12]: no binding (tested: 1000 nM)
binding result [13]: no binding (tested: 1000 nM)
binding result [14]: no binding (tested: 1000 nM)
binding result [15]: no binding (tested: 1000 nM)
binding result [16]: no binding (tested: 1000 nM)
binding result [17]: no binding (tested: 1000 nM)
binding result [18]: no binding (tested: 1000 nM)
binding result [19]: no binding (tested: 1000 nM)
binding result [20]: no binding (tested: 1000 nM)
Kd [21]: ~0.3 µM
Kd [22]: ~1.2 µM
B1: human 767 antibody (antibody, V domains shown)
VH: QVQLVESGGGLVQPGGSLRLSCAASGFTFSSYWMSWVRQAPGKGLEWVANIKQDGSEKYYVDSVKGRFTISRDNAKNSLYLQMNSLRAEDTAVYYCAREGRTGYFDYWGQGTLVTVSS
VL: QSVLTQPPSASGTPGQRVTISCSGSTSNIGTNYVYWYQQLPGTAPKLLIYRNDQRPSGVPDRFSGSKSGTSASLAISGLRSEDEADYYCAAWDDSRSGVYAFGTGTKVTVLR
notes: Human IgG1

binding result [23]: binds
binding result [24]: no binding
B2: SAR650984 antibody (antibody, human IgG1, kappa, V domains shown)
VH: QVQLVQSGAEVAKPGTSVKLSCKASGYTFTDYWMQWVKQRPGQGLEWIGTIYPGDGDTGYAQKFQGKATLTADKSSKTVYMHLSSLASEDSAVYYCARGDYYGSNSLDYWGQGTSVTVSS
VL: DIVMTQSHLSMSTSLGDPVSITCKASQDVSTVVAWYQQKPGQSPRRLIYSASYRYIGVPDRFTGSGAGTDFTFTISSVQAEDLAVYYCQQHYSPPYTFGGGTKLEIKR
notes: also called humanized SAR650984 antibody

binding result [25]: no binding (tested: 200 nM)
binding result [26]: no binding (tested: 200 nM)
binding result [27]: no binding (tested: 200 nM)
binding result [28]: no binding (tested: 200 nM)
binding result [29]: no binding (tested: 200 nM)
binding result [30]: no binding (tested: 200 nM)
binding result [31]: no binding (tested: 200 nM)
binding result [32]: no binding (tested: 200 nM)
binding result [33]: no binding (tested: 200 nM)
binding result [34]: no binding (tested: 200 nM)
binding result [35]: no binding (tested: 200 nM)
binding result [36]: no binding (tested: 200 nM)
binding result [37]: no binding (tested: 200 nM)
binding result [38]: no binding (tested: 200 nM)
binding result [39]: no binding (tested: 200 nM)
binding result [40]: no binding (tested: 200 nM)
binding result [41]: no binding (tested: 200 nM)
binding result [42]: no binding (tested: 200 nM)
binding result [43]: no binding (tested: 200 nM)
B3: humanized 9G7 antibody (best-fit version) of Example 10 (antibody, human IgG1, kappa, V domains shown)
VH: QVTLKESGPTLVKPTQTLTLTCTFSGLSLSTSGKGVGWIRQPPGKALEWLAHIWWDDDKRYNPALKSRLTITKDTSKNQVVLTMTNMDPVDTATYYCARIELGRSYVMDYWGQGTLVTVSS
VL: DIQMTQSPSSLSASVGDRVTITCQASQDVITSVAWFQQKPGKAPKLLIYSASYRYTGVPSRFSGSGSGTDFTFTISSLQPEDIATYYCQQHYTIPLTFGQGTKLEIKR
notes: also called h9G7
